Data taken from PMC5746249, “Novel linear motif filtering protocol reveals the role of the LC8 dynein light chain in the Hippo pathway” (PLoS Computational Biology, 2017).

B1: AMOT LC8 binding motif peptide, start 860 (peptide)
chain: TGSRDCSTQTE
modifications: core 860-867 printed; 11-mer assumed to add 3 N-terminal residues, as in the S1 Table motif format; termini chemistry not stated
B2: AMOTL1 LC8 binding motif peptide, start 873 (peptide)
chain: TGSKDSSTQTD
modifications: core 873-880 printed; 11-mer assumed to add 3 N-terminal residues, as in the S1 Table motif format; termini chemistry not stated
B3: WWC3 LC8 binding motif peptide, start 208 (peptide)
chain: QQFCDAGSQTD
modifications: printed start 208 appears to be in older 1092-aa numbering (current entry +124, so core 332-339); 11-mer assumed to add 3 N-terminal residues, as in the S1 Table motif format
B4: WWC3 LC8 binding motif peptide, start 867 (peptide)
chain: PLKVDKETNTE
modifications: printed start 867 appears to be in older 1092-aa numbering (current entry +124, so core 991-998); 11-mer assumed to add 3 N-terminal residues, as in the S1 Table motif format
B5: AMOTL2 LC8 binding motif peptide, start 724 (peptide)
chain: HGSRDGSTQTE
modifications: core 724-731 printed; 11-mer assumed to add 3 N-terminal residues, as in the S1 Table motif format; termini chemistry not stated
B6: WWC2 LC8 binding motif peptide, start 962 (peptide)
chain: PTLVDKETNTD
modifications: core 962-969 printed; 11-mer assumed to add 3 N-terminal residues, as in the S1 Table motif format; termini chemistry not stated
B7: WWC2 LC8 binding motif peptide, start 282 (peptide)
chain: RQTLDAGSQTS
modifications: core 282-289 printed; 11-mer assumed to add 3 N-terminal residues, as in the S1 Table motif format; termini chemistry not stated
B8: WWC1 (KIBRA) LC8 binding motif peptide, start 887 (peptide)
chain: ALKVDKETNTE
modifications: core 887-894 printed; 11-mer assumed to add 3 N-terminal residues, as in the S1 Table motif format; termini chemistry not stated
B9: WWC1 (KIBRA) LC8 binding motif peptide, start 278 (peptide)
chain: KQYLDVSSQTD
modifications: core 278-285 printed; S1 Table prints the 11-mer KQYLDVSSQTD starting at 275; termini chemistry not stated

Molecular target: LC8 dynein light chain (DYNLL2), full-length, His6-tagged (human (by the printed accession Q96FJ2), UniProt Q96FJ2 1-89)
Sequence (Q96FJ2 whole entry, one chain of several): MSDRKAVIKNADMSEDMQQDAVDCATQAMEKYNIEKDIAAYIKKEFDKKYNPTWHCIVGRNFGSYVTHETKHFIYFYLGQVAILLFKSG
Assay: SPR; His6-LC8 immobilised on Ni2+-NTA HTG sensor chip (ProteOn XPR36) at three densities (1200, 900, 600 RU); peptides injected at five concentrations, 60 ul/min; 20 mM Hepes, 150 mM NaCl, 0.05% Tween-20, 0.1 mM TCEP, 50 uM EDTA, pH 7.5; 1:1 Langmuir global fit; apparent Kd, mean of kinetic and equilibrium analysis
Details: both partners purified

Row | Kd | Binder
1 | 1.2 µM | B1
2 | 1.55 µM | B2
3 | 5.34 µM | B3
4 | 3.5 µM | B4
5 | 1.98 µM | B5
6 | 17.6 µM | B6
7 | 32.7 µM | B7
8 | 4 µM | B8
9 | 0.45 µM | B9
